Measured values: PMC314469, “Protein Interaction Networks by Proteome Peptide Scanning” (PLoS Biology, 2004)

T1: Rvs167 SH3 (RV167_YEAST), P39743
T1 chain: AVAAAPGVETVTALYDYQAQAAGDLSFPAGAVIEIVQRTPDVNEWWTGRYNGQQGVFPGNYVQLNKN

T2: Yfr024 SH3 (LSB3_YEAST), P43603
T2 chain: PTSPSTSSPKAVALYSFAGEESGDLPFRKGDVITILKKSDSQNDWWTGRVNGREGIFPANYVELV

T3: Boi2 SH3 (BOI2_YEAST), P39969
T3 chain: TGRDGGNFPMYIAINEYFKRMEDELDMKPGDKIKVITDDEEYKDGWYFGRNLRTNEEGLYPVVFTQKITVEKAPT

T4: Yhr016c SH3 (YSC84_YEAST), P32793
T4 chain: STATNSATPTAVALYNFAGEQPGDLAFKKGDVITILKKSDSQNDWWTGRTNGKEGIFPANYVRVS

T5: Boi1 SH3 (BOI1_YEAST), P38041
T5 chain: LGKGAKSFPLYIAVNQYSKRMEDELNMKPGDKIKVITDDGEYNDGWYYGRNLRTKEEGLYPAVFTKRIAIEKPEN


Experiments:
Assay in all cases: SPOT array
[1] = biological target: T1, Rvs167 SH3 (RV167_YEAST), P39743
[2] = biological target: T2, Yfr024 SH3 (LSB3_YEAST), P43603
[3] = biological target: T3, Boi2 SH3 (BOI2_YEAST), P39969
[4] = biological target: T4, Yhr016c SH3 (YSC84_YEAST), P32793
[5] = biological target: T5, Boi1 SH3 (BOI1_YEAST), P38041

Binder	normalised SPOT signal, Boehringer light units (BLU); mean over the file's lines of this peptide [1]	normalised SPOT signal, Boehringer light units (BLU); mean over the file's lines of this peptide [2]	normalised SPOT signal, Boehringer light units (BLU); mean over the file's lines of this peptide [3]	normalised SPOT signal, Boehringer light units (BLU); mean over the file's lines of this peptide [4]	normalised SPOT signal, Boehringer light units (BLU); mean over the file's lines of this peptide [5]
VTKPVVPKKTKKSA [YLR087C 319-332]	1	861	19	136	164
VTLPISPSRASISF [YGL235W 70-83]	25.8	951	33.4	79.2	52.6
VTLPTGPAKIIWEK [YHR007C 510-523]	24.1	38.2	19.3	143	94.8
VTQPITPVKKRRSE [YNL230C 264-277]	56.8	2650	90	128	442
VTTPLKPKRLAIPI [YJR083C 47-60]	17.7	1890	20.4	364	122
VTVPKLPFKLAVNK [YBR040W 181-194]	50.5	3360	69.6	230	0
VVIPPVPSRYSDER [YDL117W 95-108]	1860	4480	0	3610	50.6
VVLPKFPDKSFVLD [YLR215C 239-252]	22.6	533	34	168	94.3
VVSPSHPFKQLQKI [YIL146C 146-159]	55.9	70.5	50.3	173	59.7
VYSPIQPRRRKDSS [YLR228C 72-85]	580	13300	1180	2250	571
VYVPINPPKELDQR [YJL060W 164-177]	17.1	298	17.4	132	32.4
WISPDTPLKFPLNE [YJL093C 636-649]	168	5890	227	364	85.4
WKPPDLPIRLRKRP [YIL156W 502-515]	12900	47500	2000	24500	7340
WNDPSDPTKGFQYL [YMR207C 1538-1551]	48.9	1300	47.1	25.5	30.3
WNLPWSPFKITTIM [YDR211W 95-108]	870	6480	2670	1040	143
WSYPYEPLRVLQVG [YDR415C 17-30]	1090	2320	3020	802	326
YDFPTVPARKFVQP [YNR006W 578-591]	254	804	8.3	258	1480
